Columns and labels:
Test in all cases: SPR, mAb captured, C2 mutant analyte;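 also: Anti-C2 mAbs captured on goat anti-human IgG Biacore CM5 chips, alanine or serine C2 surface mutants flowed over at 37 °C, double-referenced sensorgrams fitted to a 1:1 binding model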
human C2 M316A = biological target: T1, human C2 M316A (human, UniProt P06681 21-752)
T1 sequence: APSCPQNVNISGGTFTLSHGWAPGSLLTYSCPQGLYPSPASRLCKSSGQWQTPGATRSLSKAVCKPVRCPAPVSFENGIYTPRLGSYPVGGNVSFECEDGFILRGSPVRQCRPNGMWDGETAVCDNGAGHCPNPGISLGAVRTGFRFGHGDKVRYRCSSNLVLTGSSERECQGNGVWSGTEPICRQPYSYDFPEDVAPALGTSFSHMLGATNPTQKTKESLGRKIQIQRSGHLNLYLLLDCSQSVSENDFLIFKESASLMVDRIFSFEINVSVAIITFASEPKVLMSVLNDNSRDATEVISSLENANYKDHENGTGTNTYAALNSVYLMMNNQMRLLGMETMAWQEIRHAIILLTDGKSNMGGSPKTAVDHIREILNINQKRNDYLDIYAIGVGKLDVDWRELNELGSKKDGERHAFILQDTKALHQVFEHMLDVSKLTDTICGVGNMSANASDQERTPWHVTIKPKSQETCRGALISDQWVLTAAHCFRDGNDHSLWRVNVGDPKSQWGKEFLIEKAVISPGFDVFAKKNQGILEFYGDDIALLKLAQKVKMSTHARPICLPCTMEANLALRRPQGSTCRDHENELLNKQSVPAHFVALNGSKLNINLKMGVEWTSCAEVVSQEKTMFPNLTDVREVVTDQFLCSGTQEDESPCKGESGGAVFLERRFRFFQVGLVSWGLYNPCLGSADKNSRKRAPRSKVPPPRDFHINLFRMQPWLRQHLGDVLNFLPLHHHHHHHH

human C2 K244A = biological target: T2, human C2 K244A (human, UniProt P06681 21-752)
T2 sequence: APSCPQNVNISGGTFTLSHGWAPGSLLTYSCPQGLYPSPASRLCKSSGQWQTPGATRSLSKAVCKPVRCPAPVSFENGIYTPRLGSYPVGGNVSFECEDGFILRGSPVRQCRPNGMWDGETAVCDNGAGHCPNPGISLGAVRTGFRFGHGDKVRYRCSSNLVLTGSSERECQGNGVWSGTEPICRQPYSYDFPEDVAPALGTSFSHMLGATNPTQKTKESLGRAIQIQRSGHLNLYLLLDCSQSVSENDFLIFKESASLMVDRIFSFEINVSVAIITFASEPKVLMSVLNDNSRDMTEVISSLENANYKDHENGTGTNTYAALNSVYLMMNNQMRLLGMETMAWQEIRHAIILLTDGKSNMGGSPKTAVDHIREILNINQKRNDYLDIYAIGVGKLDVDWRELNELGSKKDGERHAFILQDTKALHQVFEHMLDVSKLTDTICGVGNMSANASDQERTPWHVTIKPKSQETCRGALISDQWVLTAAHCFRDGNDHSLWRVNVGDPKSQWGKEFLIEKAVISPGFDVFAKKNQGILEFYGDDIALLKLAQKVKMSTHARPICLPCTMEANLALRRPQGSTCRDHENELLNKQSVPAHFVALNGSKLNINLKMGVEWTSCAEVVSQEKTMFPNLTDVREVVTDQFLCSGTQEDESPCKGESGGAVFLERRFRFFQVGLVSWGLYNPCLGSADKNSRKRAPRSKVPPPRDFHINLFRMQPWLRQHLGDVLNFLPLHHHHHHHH

human C2 E686A = biological target: T3, human C2 E686A (human, UniProt P06681 21-752)
T3 sequence: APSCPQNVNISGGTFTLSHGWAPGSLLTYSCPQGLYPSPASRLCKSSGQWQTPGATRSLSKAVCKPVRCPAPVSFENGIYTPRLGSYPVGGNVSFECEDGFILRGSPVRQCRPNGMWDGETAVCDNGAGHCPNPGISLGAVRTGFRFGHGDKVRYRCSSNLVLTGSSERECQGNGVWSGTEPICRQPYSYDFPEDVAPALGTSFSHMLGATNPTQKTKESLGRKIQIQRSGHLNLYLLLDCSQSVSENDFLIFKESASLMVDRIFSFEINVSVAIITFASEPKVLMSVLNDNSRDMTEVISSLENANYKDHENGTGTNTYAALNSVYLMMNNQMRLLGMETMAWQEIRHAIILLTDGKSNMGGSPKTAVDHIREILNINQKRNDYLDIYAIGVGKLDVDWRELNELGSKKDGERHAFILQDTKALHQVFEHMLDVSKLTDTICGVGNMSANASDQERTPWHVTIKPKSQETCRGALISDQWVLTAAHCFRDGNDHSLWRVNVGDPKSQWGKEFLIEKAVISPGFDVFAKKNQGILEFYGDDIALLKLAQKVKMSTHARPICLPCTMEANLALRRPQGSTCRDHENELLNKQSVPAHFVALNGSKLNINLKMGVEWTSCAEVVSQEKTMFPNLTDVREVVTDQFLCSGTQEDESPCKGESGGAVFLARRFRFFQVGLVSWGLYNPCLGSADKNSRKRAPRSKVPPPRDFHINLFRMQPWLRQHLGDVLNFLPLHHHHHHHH

human C2 E450A = biological target: T4, human C2 E450A (human, UniProt P06681 21-752)
T4 sequence: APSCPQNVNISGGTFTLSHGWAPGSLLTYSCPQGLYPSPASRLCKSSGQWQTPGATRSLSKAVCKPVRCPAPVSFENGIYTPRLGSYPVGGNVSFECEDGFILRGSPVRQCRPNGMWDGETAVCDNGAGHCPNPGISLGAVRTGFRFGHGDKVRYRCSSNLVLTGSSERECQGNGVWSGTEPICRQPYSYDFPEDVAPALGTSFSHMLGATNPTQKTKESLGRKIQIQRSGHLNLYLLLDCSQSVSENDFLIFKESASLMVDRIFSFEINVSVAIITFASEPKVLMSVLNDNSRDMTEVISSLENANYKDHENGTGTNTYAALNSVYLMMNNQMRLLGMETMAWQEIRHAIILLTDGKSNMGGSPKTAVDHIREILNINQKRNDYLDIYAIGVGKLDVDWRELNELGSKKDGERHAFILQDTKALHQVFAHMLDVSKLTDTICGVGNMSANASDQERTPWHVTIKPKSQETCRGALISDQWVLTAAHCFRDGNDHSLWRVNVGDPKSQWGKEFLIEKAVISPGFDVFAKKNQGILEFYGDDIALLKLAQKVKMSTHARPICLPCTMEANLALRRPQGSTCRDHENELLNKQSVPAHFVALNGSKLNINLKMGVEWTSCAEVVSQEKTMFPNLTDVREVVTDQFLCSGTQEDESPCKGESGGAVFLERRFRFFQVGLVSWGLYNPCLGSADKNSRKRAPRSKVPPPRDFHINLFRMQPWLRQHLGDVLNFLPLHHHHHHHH

Kd (human C2 M316A): 30.2 nM
Kd (human C2 K244A): 97.1 nM
Kd (human C2 E686A): 139 nM
Kd (human C2 E450A): 627 nM
B1: RF16-214 (antibody, V domains shown)
VH: EVQLLESGGGLVQPGGSLRLSCAASGFTFSWYQMMWVRQAPGKGLEWVSRIYPSGGGTAYADSVKGRFTISRDNSKNTLYLQMNSLRAEDTAVYYCARDAGYGDNWGQGTLVTVSS
VL: QSALTQPPSVSVSPGQTASITCSGDKLGEKYASWYQQKAGQSPVMVIYQDRKRPSGIPERFSGSNSGNTATLTISGTQAMDEADYYCQAWDTRAVVFGGGTKLTVLG
